Here are results for eight sequences from the supplement of paper PMC11246515.

± gives the standard deviation of the averaged measurements. Bounds are passed on as bounds.

A short description of the data set: total protein half-life in vivo (active degradation + dilution); higher = more stable protein.
[1] abbreviates: E. coli NCM3722 delta-clpP delta-lon delta-hslV, growth: N-lim chemostat, doubling time 6 h.
Setting [2] is: E. coli NCM3722 delta-clpP, growth: N-lim chemostat, doubling time 6 h.
Setting [3] is: E. coli NCM3722 delta-hslV, growth: N-lim chemostat, doubling time 6 h.
[4] abbreviates: E. coli NCM3722 delta-lon, growth: N-lim chemostat, doubling time 6 h.
[5] abbreviates: E. coli NCM3722 delta-smpB, growth: N-lim chemostat, doubling time 6 h.
Setting [6] is: wild type E. coli NCM3722, growth: C-lim chemostat, doubling time 3 h.
[7] abbreviates: wild type E. coli NCM3722, growth: C-lim chemostat, doubling time 6 h.
Setting [8] is: wild type E. coli NCM3722, growth: C-lim chemostat, doubling time 12 h.
Where [9] appears, read: wild type E. coli NCM3722, growth: N-lim chemostat, doubling time 6 h.
[10] abbreviates: wild type E. coli NCM3722, growth: N-lim chemostat, doubling time 12 h.
[11] abbreviates: wild type E. coli NCM3722, growth: P-lim chemostat, doubling time 6 h.
Setting [12] is: wild type E. coli NCM3722, growth: P-lim chemostat, doubling time 12 h.

Take “MLAKRIIPCLDVRDGQVVKGVQFRNHEIIGDIVPLAKRYAEEGADELVFYDITASSDGRVVDKSWVSRVAEVIDIPFCVAGGIKSLEDAAKILSFGADKISINSPALADPTLITRLADRFGVQCIVVGIDTWYDAETGKYHVNQYTGDESRTRVTQWETLDWVQEVQKRGAGEIVLNMMNQDGVRNGYDLEQLKKVREVCHVPLIASGGAGTMEHFLEAFRDADVDGALAASVFHKQIINIGELKAYLATQGVEIRIC”: the “total protein half-life in vivo” value under setting [1] amounted to 4.98 ± 0.68 h; the “total protein half-life in vivo” value under setting [2] was 4.15 ± 0.38 h; the “total protein half-life in vivo” value under setting [3] came out at 4.45 ± 0.13 h; the “total protein half-life in vivo” value under setting [4] amounted to 4.83 ± 0.12 h; the “total protein half-life in vivo” value under setting [5] was 4.317 ± 0.0095 h; the “total protein half-life in vivo” value under setting [6] was 2.97 ± 0.2 h. Also, the “total protein half-life in vivo” value runs as follows: under setting [7], 5.53 ± 0.17 h; under setting [8], 9.44 ± 0.28 h; under setting [9], 4.34 ± 0.0084 h; under setting [10], 7.26 ± 0.56 h; under setting [11], 5.64 ± 0.13 h; under setting [12], 11.6 ± 0.42 h.
For the sequence “MTILSLSRFMLAGVLLASFNASAIPGFWQQGYGQGNTEYSVTEASGKTFTINCTGNPDQNGFYQHSVFLTLADDKMVSSHDDDTTITVVMDHQQYIIPSSLGWRNGDNAWFDFISNISEAGQFDVYVNDHKAGTFTADRKNAEKVLSTLGDCSND”, the “total protein half-life in vivo” value under setting [8] was 5.33 h.
On to “MKYLASFRTTLKASRYMFRALALVLWLLIAFSSVFYIVNALHQRESEIRQEFNLSSDQAQRFIQRTSDVMKELKYIAENRLSAENGVLSPRGRETQADVPAFEPLFADSDCSAMSNTWRGSLESLAWFMRYWRDNFSAAYDLNRVFLIGSDNLCMANFGLRDMPVERDTALKALHERINKYRNAPQDDSGSNLYWISEGPRPGVGYFYALTPVYLANRLQALLGVEQTIRMENFFLPGTLPMGVTILDENGHTLISLTGPESKIKGDPRWMQERSWFGYTEGFRELVLKKNLPPSSLSIVYSVPVDKVLERIRMLILNAILLNVLAGAALFTLARMYERRIFIPAESDALRLEEHEQFNRKIVASAPVGICILRTADGVNILSNELAHTYLNMLTHEDRQRLTQIICGQQVNFVDVLTSNNTNLQISFVHSRYRNENVAICVLVDVSSRVKMEESLQEMAQAAEQASQSKSMFLATVSHELRTPLYGIIGNLDLLQTKELPKGVDRLVTAMNNSSSLLLKIISDILDFSKIESEQLKIEPREFSPREVMNHITANYLPLVVRKQLGLYCFIEPDVPVALNGDPMRLQQVISNLLSNAIKFTDTGCIVLHVRADGDYLSIRVRDTGVGIPAKEVVRLFDPFFQVGTGVQRNFQGTGLGLAICEKLISMMDGDISVDSEPGMGSQFTVRIPLYGAQYPQKKGVEGLSGKRCWLAVRNASLCQFLETSLQRSGIVVTTYEGQEPTPEDVLITDEVVSKKWQGRAVVTFCRRHIGIPLEKAPGEWVHSVAAPHELPALLARIYLIEMESDDPANALPSTDKAVSDNDDMMILVVDDHPINRRLLADQLGSLGYQCKTANDGVDALNVLSKNHIDIVLSDVNMPNMDGYRLTQRIRQLGLTLPVIGVTANALAEEKQRCLESGMDSCLSKPVTLDVIKQTLTLYAERVRKSRDS [P0DMC5]”, for which the “total protein half-life in vivo” value was found to be 6.287 ± 0.034 h under setting [2]; 5.76 ± 0.49 h under setting [3]; 6.22 ± 0.067 h under setting [4]; 5.88 ± 0.48 h under setting [5]; 2.98 ± 0.21 h under setting [6]; 6.119 ± 0.024 h under setting [7]. Moreover, the “total protein half-life in vivo” value reads like this: under setting [8], 13.1 ± 2.3 h; under setting [9], 6.01 ± 0.37 h; under setting [10], 11.6 ± 0.28 h; under setting [11], 6.1 ± 0.12 h; under setting [12], 11.8 ± 0.82 h.
Regarding “MSTLGHQYDNSLVSNAFGFLRLPMNFQPYDSDADWVITGVPFDMATSGRAGGRHGPAAIRQVSTNLAWEHNRFPWNFDMRERLNVVDCGDLVYAFGDAREMSEKLQAHAEKLLAAGKRMLSFGGDHFVTLPLLRAHAKHFGKMALVHFDAHTDTYANGCEFDHGTMFYTAPKEGLIDPNHSVQIGIRTEFDKDNGFTVLDACQVNDRSVDDVIAQVKQIVGDMPVYLTFDIDCLDPAFAPGTGTPVIGGLTSDRAIKLVRGLKDLNIVGMDVVEVAPAYDQSEITALAAATLALEMLYIQAAKKGE”, the “total protein half-life in vivo” value is, setting by setting: under setting [1], 6.58 ± 1 h; under setting [2], 5.85 ± 0.27 h; under setting [3], 5.33 ± 0.076 h; under setting [4], 7.38 ± 0.48 h; under setting [5], 5.82 ± 0.58 h; under setting [6], 2.9 ± 0.36 h. The “total protein half-life in vivo” value runs as follows: under setting [7], 6.205 ± 0.019 h; under setting [8], 11.8 ± 0.43 h; under setting [9], 6.72 ± 0.96 h; under setting [10], 11.9 h; under setting [11], 6.0955 ± 0.0043 h; under setting [12], 12.2 ± 1.3 h.
Turning to “MISVFDIFKIGIGPSSSHTVGPMKAGKQFTDDLIARNLLKDVTRVVVDVYGSLSLTGKGHHTDIAIIMGLAGNLPDTVDIDSIPSFIQDVNTHGRLMLANGQHEVEFPVDQCMNFHADNLSLHENGMRITALAGDKVVYSQTYYSIGGGFIVDEEHFGQQDSAPVEVPYPYSSAADLQKHCQETGLSLSGLMMKNELALHSKEELEQHLANVWEVMRGGIERGISTEGVLPGKLRVPRRAAALRRMLVSQDKTTTDPMAVVDWINMFALAVNEENAAGGRVVTAPTNGACGIIPAVLAYYDKFIREVNANSLARYLLVASAIGSLYKMNASISGAEVGCQGEVGVACSMAAAGLAELLGASPAQVCIAAEIAMEHNLGLTCDPVAGQVQVPCIERNAIAAVKAVNAARMALRRTSEPRVCLDKVIETMYETGKDMNAKYRETSRGGLAMKIVACD”, under setting [1], the “total protein half-life in vivo” value is 3.9 h.
In the case of “MSTEKEKMIAGELYRSADETLSRDRLRARQLIHRYNHSLAEEHTLRQQILADLFGQVTEAYIEPTFRCDYGYNIFLGNNFFANFDCVMLDVCPIRIGDNCMLAPGVHIYTATHPIDPVARNSGAELGKPVTIGNNVWIGGRAVINPGVTIGDNVVVASGAVVTKDVPDNVVVGGNPARIIKKL”, the “total protein half-life in vivo” value was 3.81 h under setting [1]; greater than 8 h under setting [2]; 1.77 h under setting [3]; 3.24 ± 0.56 h under setting [6]; 3.82 ± 0.11 h under setting [7]; 5.15 ± 2.1 h under setting [8]. Moreover, the “total protein half-life in vivo” value under setting [11] was greater than 8 h and the “total protein half-life in vivo” value under setting [12] turned out to be 7.59 ± 1.4 h.
On to “MELKKLMGHISIIPDYRQAWKMEHKLSDILLLTICAVISGAEGWEDIEDFGETHPDFLKQYGDFENGIPVHDTIARVVSCISPAKFHECFINWMRDCHSSDDKDVIAIDGKTLRHSYDKSRRRGAIHVISAFSTMHSLVIGQIKTDEKSNEITAIPELLNMLDIKGKIITTDAMGCQKDIAEKIQKQGGDYLFAVKGNQGRLNKAFEEKFPLKELNNPAHDSYAMSEKSHGREEIRLHIVCDVPDELIDFTFEWKGLKKLCVAVSFRSIIAEQKKELEMTVRYYISSADLTAEKFATAIRNHWHVENKLHWRLDVVMNEDDCKIRRGNAAELFSGIRHIAINILTNDKVFKAGLRRKMRKAAMDRNYLASVLTGSGLS”, for which the “total protein half-life in vivo” value runs as follows: under setting [1], 6.51 h; under setting [12], 11.9 h.
For the sequence “MSFDLIIKNGTVILENEARVVDIAVKGGKIAAIGQDLGDAKEVMDASGLVVSPGMVDAHTHISEPGRSHWEGYETGTRAAAKGGITTMIEMPLNQLPATVDRASIELKFDAAKGKLTIDAAQLGGLVSYNIDRLHELDEVGVVGFKCFVATCGDRGIDNDFRDVNDWQFFKGAQKLGELGQPVLVHCENALICDELGEEAKREGRVTAHDYVASRPVFTEVEAIRRVLYLAKVAGCRLHVCHVSSPEGVEEVTRARQEGQDVTCESCPHYFVLDTDQFEEIGTLAKCSPPIRDLENQKGMWEKLFNGEIDCLVSDHSPCPPEMKAGNIMKAWGGIAGLQSCMDVMFDEAVQKRGMSLPMFGKLMATNAADIFGLQQKGRIAPGKDADFVFIQPNSSYVLTNDDLEYRHKVSPYVGRTIGARITKTILRGDVIYDIEQGFPVAPKGQFILKHQQ”, the “total protein half-life in vivo” value amounted to 4.05 h under setting [1]; 3.35 h under setting [4]; 1.23 ± 0.55 h under setting [6]; 2.5 ± 0.8 h under setting [7]; 2.38 ± 0.29 h under setting [8]; 5.33 h under setting [12].
